Data from PMC5886089, “Biophysical and functional characterization of hippocalcin mutants responsible for human dystonia” (Human Molecular Genetics, 2017).

Molecular target: the molecule itself
Experiment: cross-linking; in vitro cross-link (BS3 or DSP) of purified protein in the presence of calcium; densitometry after DSP

B1: hippocalcin(T71N) (natural protein)
chain: not shown
notes: human hippocalcin (HPCA) with the dystonia-causing mutation T71N, in pGEX-6P1; unmyristoylated; Mutation found homozygous in DYT2 dystonia patients; also called HPCA T71N; T71N mutant; source: E. coli BL21(DE3) STAR, purified (GST resin, PreScission cleavage, Superdex 200); not shown: GST, N-terminal, cleaved
B1: binds.

B2: hippocalcin(A190T) (natural protein)
chain: not shown
notes: human hippocalcin (HPCA) with the dystonia-causing mutation A190T, in pGEX-6P1; unmyristoylated; Mutation found homozygous in DYT2 dystonia patients; also called HPCA A190T; A190T mutant; source: E. coli BL21(DE3) STAR, purified (GST resin, PreScission cleavage, Superdex 200); not shown: GST, N-terminal, cleaved
B2: binds.
